Where a chain is given by its changes, count along the chain named.

The labels stand for the following.
B1: hPGT121.66 AAS + W/huSP34.3.8 scFv AAS + SAV + R (bispecific antibody, human IgG1, lambda, L234A L235A)
chain: EVQLVESGGGLVQPGGSLRLSCAASGFTFNTYAMNWVRQAPGKGLEWVGRIRSKYNNYATYYADSVKGRFTISRDDSKNSLYLQMNSLRTEDTAVYYCVRHGNFGHSYVSWFAYWGQGTLVTVSSGGGGSGGGGSGGGGSGGGGSQAVVTQEPSLTVSPGGTVTLTCGSSTGAVTTGHYANWVQQKPGQAPRGLIGGTNKRAPGVPARFSGSLLGGKAALTISGAQPEDEAEYYCALWYSNRWVFGGGTKLTVLEPKSSDKTHTCPPCPAPEAAGGPSVFLFPPKPKDTLMISRTPEVTCVVVDVSHEDPEVKFNWYVDGVEVHNAKTKPREEQYNSTYRVVSVLTVLHQDWLNGKEYKCKVSNKALPASIEKTISKAKGQPREPQVYTLPPSREEMTKNQVSLSCAVKGFYPSDIAVEWESNGQPENNYKTTPPVLDSDGSFFLVSKLTVDKSRWQQGNVFSCSVMHEALHNRYTQKSLSLSPGK
heavy: QMQLQESGPGLVKPSETLSLTCSVSGASISDSYWSWIRRSPGKGLEWIGYVHKSGDTNYNPSLKSRVHLSLDTSKNQVSLSLTGVTAADSGKYYCARTLHGRRIYGIVAFNEWFTYFYMDVWGTGTQVTVSSASTKGPSVFPLAPSSKSTSGGTAALGCLVKDYFPEPVTVSWNSGALTSGVHTFPAVLQSSGLYSLSSVVTVPSSSLGTQTYICNVNHKPSNTKVDKKVEPKSCDKTHTCPPCPAPEAAGGPSVFLFPPKPKDTLMISRTPEVTCVVVDVSHEDPEVKFNWYVDGVEVHNAKTKPREEQYNSTYRVVSVLTVLHQDWLNGKEYKCKVSNKALPASIEKTISKAKGQPREPQVYTLPPSREEMTKNQVSLWCLVKGFYPSDIAVEWESNGQPENNYKTTPPVLDSDGSFFLYSKLTVDKSRWQQGNVFSCSVMHEALHNHYTQKSLSLSPGK
light: not shown
B2: hPGT121.66 AAS + W/huSP34.13.8 scFv AAS + SAV + R (bispecific antibody, human IgG1, lambda, L234A L235A)
chain: B1 chain with N30S, D64A, S80T
heavy: B1 heavy
light: not shown
notes: also called 261; bispecific 261
B3: hPGT121.66 AAS + W/huSP34.34.12 scFv AAS + SAV + R (bispecific antibody, human IgG1, lambda, L234A L235A)
chain: B1 chain with D64A, R89K, V95M, E152P, G204W, V205T, L214S
heavy: B1 heavy
light: not shown
B4: hPGT121.66 AAS + W/huSP34.34.3 scFv AAS + SAV + R (bispecific antibody, human IgG1, lambda, L234A L235A)
chain: not shown
heavy: B1 heavy
light: not shown
B5: hPGT121.66 AAS + W/huSP34.34.11 scFv AAS + SAV + R (bispecific antibody, human IgG1, lambda, L234A L235A)
chain: B1 chain with D64A, R89K, V95M, I222L, R242L
heavy: B1 heavy
light: not shown
B6: hPGT121.66 AAS + W/huSP34.34.10 scFv AAS + SAV + R (bispecific antibody, human IgG1, lambda, L234A L235A)
chain: B1 chain with D64A, R89K, V95M, E152P, L214S
heavy: B1 heavy
light: not shown
B7: hPGT121.66 AAS + W/huSP34.3.13 scFv AAS + SAV + R (bispecific antibody, human IgG1, lambda, L234A L235A)
chain: B1 chain with N199S, K200N
heavy: B1 heavy
light: not shown
B8: hPGT121.66 AAS + W/huSP34.25.8scFv AAS + SAV + R (bispecific antibody, human IgG1, lambda, L234A L235A)
chain: B1 chain with N30S, T60A, D64A, G68S, S80T
heavy: B1 heavy
light: not shown
B9: hPGT121.66 AAS + W/huSP34.26.8scFv AAS + SAV + R (bispecific antibody, human IgG1, lambda, L234A L235A)
chain: B1 chain with R19S, N30S, T60A, D64A, S80T
heavy: B1 heavy
light: not shown
B10: hPGT121.66 AAS + W/huSP34.19.8scFv AAS + SAV + R (bispecific antibody, human IgG1, lambda, L234A L235A)
chain: B1 chain with N30S, D64A, S80T, Q84E
heavy: B1 heavy
light: not shown
B11: hPGT121.66 AAS + W/huSP34.14.8scFv AAS + SAV + R (bispecific antibody, human IgG1, lambda, L234A L235A)
chain: B1 chain with R19S, N30S, D64A, S80T
heavy: B1 heavy
light: not shown
B12: hCD4D1.22 Fc AAS + W + YTE/huSP34.39.13 AAS + SAV + R (bispecific antibody, human IgG1, lambda, L234A L235A)
chain: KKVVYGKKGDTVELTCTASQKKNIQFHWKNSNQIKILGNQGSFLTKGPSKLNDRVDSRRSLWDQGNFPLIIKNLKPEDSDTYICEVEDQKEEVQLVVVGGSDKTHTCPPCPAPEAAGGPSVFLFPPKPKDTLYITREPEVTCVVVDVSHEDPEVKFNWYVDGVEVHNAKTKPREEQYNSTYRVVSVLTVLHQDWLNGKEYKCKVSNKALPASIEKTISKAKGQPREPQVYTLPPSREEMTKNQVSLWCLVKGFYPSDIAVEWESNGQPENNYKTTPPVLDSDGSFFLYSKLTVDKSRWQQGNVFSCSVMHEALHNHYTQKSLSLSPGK
heavy: EVQLVESGGGLVQPGGSLRLSCAASGFTFNTYAMNWVRQAPGKGLEWVGRIRSKYNNYATYYADSVKSRFTISRDDSKNSLYLEMNSLRTEDTAVYYCVRHGNFGHSYVSWFAYWGQGTLVTVSSASTKGPSVFPLAPSSKSTSGGTAALGCLVKDYFPEPVTVSWNSGALTSGVHTFPAVLQSSGLYSLSSVVTVPSSSLGTQTYICNVNHKPSNTKVDKKVEPKSCDKTHTCPPCPAPEAAGGPSVFLFPPKPKDTLMISRTPEVTCVVVDVSHEDPEVKFNWYVDGVEVHNAKTKPREEQYNSTYRVVSVLTVLHQDWLNGKEYKCKVSNKALPASIEKTISKAKGQPREPQVYTLPPSREEMTKNQVSLSCAVKGFYPSDIAVEWESNGQPENNYKTTPPVLDSDGSFFLVSKLTVDKSRWQQGNVFSCSVMHEALHNRYTQKSLSLSPGK
light: QAVVTQEPSLTVSPGGTVTLTCGSSTGAVTTGHYANWVQQKPGQAPRGLIGGTSNRAPGVPARFSGSLLGGKAALTISGAQPEDEAEYYCALWYSNRWVFGGGTKLTVLGQPKAAPSVTLFPPSSEELQANKATLVCLISDFYPGAVTVAWKADSSPVKAGVETTTPSKQSNNKYAASSYLSLTPEQWKSHRSYSCQVTHEGSTVEKTVAPTECS
notes: also called 180; bispecific 180
B13: hCD4D1.22 Fc AAS + W + YTE/huSP34.40.13 AAS + SAV + R (bispecific antibody, human IgG1, lambda, L234A L235A)
chain: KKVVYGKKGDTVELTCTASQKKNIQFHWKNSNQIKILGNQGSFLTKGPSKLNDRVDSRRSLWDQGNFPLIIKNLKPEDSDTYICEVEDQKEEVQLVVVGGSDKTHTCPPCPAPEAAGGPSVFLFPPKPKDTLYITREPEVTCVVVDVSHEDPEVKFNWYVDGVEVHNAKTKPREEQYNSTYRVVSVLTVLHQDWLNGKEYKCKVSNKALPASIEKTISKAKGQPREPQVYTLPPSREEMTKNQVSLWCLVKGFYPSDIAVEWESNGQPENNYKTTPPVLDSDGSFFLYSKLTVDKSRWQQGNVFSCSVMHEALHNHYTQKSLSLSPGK
heavy: B12 heavy with T60A, E84Q
light: B12 light
notes: also called 188; bispecific 188
B14: hCD4D1.22 Fc AAS + W + YTE/huSP34.41.13 AAS + SAV + R (bispecific antibody, human IgG1, lambda, L234A L235A)
chain: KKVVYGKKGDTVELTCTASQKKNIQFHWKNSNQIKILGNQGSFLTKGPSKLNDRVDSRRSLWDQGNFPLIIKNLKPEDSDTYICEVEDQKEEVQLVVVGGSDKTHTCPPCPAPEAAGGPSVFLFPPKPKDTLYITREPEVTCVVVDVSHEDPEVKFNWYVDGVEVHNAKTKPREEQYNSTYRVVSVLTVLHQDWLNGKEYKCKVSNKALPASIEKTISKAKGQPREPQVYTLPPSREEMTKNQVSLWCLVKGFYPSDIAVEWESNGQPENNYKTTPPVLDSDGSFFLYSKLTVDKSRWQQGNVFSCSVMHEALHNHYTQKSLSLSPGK
heavy: B12 heavy with R19S, E84Q
light: B12 light
B15: h3BNC117.52.64 AAS + SAV + YTE/huSP34.3.13 scFv AAS + W + YTE (bispecific antibody, human IgG1, kappa, L234A L235A)
chain: B1 chain with N199S, K200N, M291Y, S293T, T295E, S405W, A407L, V446Y, R474H
heavy: QVQLLQSGAAVTKPGASVRVSCEASGYNIRDYFIHWWRQAPGQGLQWVGWINPKTGQPNNPRQFQGRVSLTRHASFDFDTFSFYMDLKALRSDDTAVYFCARQRSDYWDFDVWGSGTQVTVSSASTKGPSVFPLAPSSKSTSGGTAALGCLVKDYFPEPVTVSWNSGALTSGVHTFPAVLQSSGLYSLSSVVTVPSSSLGTQTYICNVNHKPSNTKVDKKVEPKSCDKTHTCPPCPAPEAAGGPSVFLFPPKPKDTLYITREPEVTCVVVDVSHEDPEVKFNWYVDGVEVHNAKTKPREEQYNSTYRVVSVLTVLHQDWLNGKEYKCKVSNKALPASIEKTISKAKGQPREPQVYTLPPSREEMTKNQVSLSCAVKGFYPSDIAVEWESNGQPENNYKTTPPVLDSDGSFFLVSKLTVDKSRWQQGNVFSCSVMHEALHNHYTQKSLSLSPGK
light: DIQMTQSPSSLSASVGDTATITCQANGYLNWYQQRRGKAPKLLIYDGSKLERGVPSRFSGRRWGQEYNLTINNLQPEDIATYFCQVYEFVVPGTRLDLKRTVAAPSVFIFPPSDEQLKSGTASVVCLLNNFYPREAKVQWKVDNALQSGNSQESVTEQDSKDSTYSLSSTLTLSKADYEKHKVYACEVTHQGLSSPVTKSFNRGEC

In the first assay the target is T1, biotinylated CD3 epsilon:delta heterodimer protein (Amsbio AMS.CDD-H52WO) (Homo sapiens (Human), UniProt P07766 23-126; P04234 22-105).
T1 construct: also called CD3 heterodimer
The assay is described as follows: BLI (Octet), CD3 on SA sensor, bispecific analyte. (BLI is a label-free optical method that tracks binding on a fibre tip over time.)
As a reminder, the Kd is a measure of binding affinity in units of concentration. One may read the koff as the first-order rate constant of dissociation. A high value points to a short-lived complex. As usually defined, the kon is a measure of how fast the partners come together. A lower kon goes with slow association. B1 gave a Kd of 7.1 nM, a koff of 0.000475 s⁻¹ and a kon of 66600 M⁻¹ s⁻¹.

B2: the Kd turned out to be 20.8 nM, the koff was 0.000947 s⁻¹ and the kon came to 48500 M⁻¹ s⁻¹.

For B3, the affinity, expressed as Kd, was 9.9 nM; the koff amounted to 0.00431 s⁻¹; the kon worked out at 433000 M⁻¹ s⁻¹.

B4 gave a Kd of 10.3 nM, a koff of 0.00619 s⁻¹ and a kon of 620000 M⁻¹ s⁻¹.

In the case of B5, binding was put at a Kd of 16 nM, the koff amounted to 0.00172 s⁻¹ and the kon is 116000 M⁻¹ s⁻¹.

Take B6: binding was put at a Kd of 8.4 nM, the koff worked out at 0.00083 s⁻¹ and the kon was 120000 M⁻¹ s⁻¹.

In the case of B7, binding was characterised by a dissociation constant (Kd) of 16.8 nM, the koff came out at 0.00171 s⁻¹ and the kon was determined as 106000 M⁻¹ s⁻¹.

A further assay addresses T1, biotinylated CD3 epsilon:delta …. Briefly: BLI (Octet), CD3 on SA sensor, bispecific analyte. The source holds these as a separate data set.
B8 gave a Kd of 10.6 nM, a koff of 0.000928 s⁻¹ and a kon of 87600 M⁻¹ s⁻¹.

Turning to B9, the Kd was 9.3 nM, the koff was 0.000504 s⁻¹ and the kon came out at 55900 M⁻¹ s⁻¹.

Molecule B10 gave a Kd of 14.7 nM, a koff of 0.00104 s⁻¹ and a kon of 72200 M⁻¹ s⁻¹.

B11 gave a Kd of 24.3 nM, a koff of 0.000932 s⁻¹ and a kon of 39000 M⁻¹ s⁻¹.

In another assay the target is T2, biotinylated Human CD3E and CD3D (Acro Biosystems Cat CDD-H82W1) (human, UniProt P07766 23-126; P04234 22-105).
T2 construct: also called biotinylated CD3
Briefly: SPR (Biacore 4000), CD3 captured on streptavidin chip.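 Also: bispecific antibodies or Fabs injected at several concentrations over CD3 surfaces of varying density, sensorgrams fitted with a simple kinetic model to obtain association, dissociation and equilibrium constants.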 Background: Surface plasmon resonance follows binding to a sensor surface in real time, without labels.
The molecule B12 gave a Kd of 2.5 nM, a koff of 0.0049 s⁻¹ and a kon of 2e+06 M⁻¹ s⁻¹.

In turn, B13 gave a Kd of 1.6 nM, a koff of 0.0036 s⁻¹ and a kon of 2.2e+06 M⁻¹ s⁻¹.

B14 yielded a Kd of 2 nM, an off-rate (koff) of 0.0047 s⁻¹ and a kon of 2.4e+06 M⁻¹ s⁻¹.

The molecule B1 had a Kd of 2.5 nM, a koff of 0.0071 s⁻¹ and a kon of 2.8e+06 M⁻¹ s⁻¹.

B15 had an equilibrium dissociation constant (Kd) of 2.7 nM, a koff of 0.0087 s⁻¹ and a kon of 3.3e+06 M⁻¹ s⁻¹.

As to B3, the Kd was determined as 32 nM, the koff was 0.0119 s⁻¹ and the kon was found to be 370000 M⁻¹ s⁻¹.

B4 had a Kd of 43 nM, a koff of 0.017 s⁻¹ and a kon of 390000 M⁻¹ s⁻¹.

B5: the Kd turned out to be 3.9 nM, the koff turned out to be 0.0129 s⁻¹ and the kon is 3.3e+06 M⁻¹ s⁻¹.

B6: the affinity, expressed as Kd, was 3.9 nM; the koff stood at 0.0102 s⁻¹; the kon was determined as 2.6e+06 M⁻¹ s⁻¹.

In turn, B7 registered a Kd of 2.4 nM, a koff of 0.0084 s⁻¹ and a kon of 3.6e+06 M⁻¹ s⁻¹.

(Values after US20230056252A1 (Gilead, published 2023).)
